Results taken from EP2213302A2 (Genentech, Inc., dated 2010).

Target: T1, DR4 ECD immunoadhesin (human, UniProt O00220 24-218)
T1 construct: also called DR4-IgG; DR4 ECD-IgG; not shown: CH1, hinge and Fc region of human immunoglobulin G1 heavy chain
Assay: KinExA equilibrium, antibody in solution with DR4-IgG, DR4-IgG beads

T1 sequence (O00220 other isoform, or with tags, fused parts or gaps): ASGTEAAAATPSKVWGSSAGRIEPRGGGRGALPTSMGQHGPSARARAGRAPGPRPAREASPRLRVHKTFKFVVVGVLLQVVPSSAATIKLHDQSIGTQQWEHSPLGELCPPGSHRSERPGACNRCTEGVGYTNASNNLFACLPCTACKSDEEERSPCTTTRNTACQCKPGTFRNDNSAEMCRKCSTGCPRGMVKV

Kd: 5 pM
B1: 4H6.17.8 anti-DR4 monoclonal antibody (murine) (antibody, V domains shown)
VH: QVQLKESGPGLVAPSQSLSITCTVSGFSLTSYGVHWVRQPPGKGLEWLGVIWAVGSTNYNSALMSRLSISKDNSKSQVFLKMNSLQTDDTAMYYCAREGEFDYYGSSLLSYHSMNFWGQGTSVTVS
VL: DIQMTQTTSSLSASLGDRVTISCRASQDISNYLNWYQRKPDGTVKLLIYYTSRLHSGVPSRFSGSGSGTDYSLTISNLEQEDIATYFCQQGNTLPFTFGSATKLELT
notes: Murine IgG1 from hybridoma ATCC HB-12455; only the variable domains apply here; the listing has Xaa at 20)
